Data published in US20040175720A1 (NEW YORK UNIVERSITY, published 2004).

B1: B42-NIF-1 (full-length), B42 activation domain fusion expressed from pJG4-5 in yeast (other, not shown: large carriers)
chain: MEENEVESSSDAAPGPGRPEEPSESGLGVGTSEAVSADSSDAAAAPGQAEADDSGVGQSSDRGSRSQEEVSESSSSADPLPNSYLPDSSSVSHGPVAGVTGGPPALVHSSALPDPNMLVSDCTASSSDLGSAIDKIIESTIGPDLIQNCITVTSAEDGGAETTRYLILQGPDDGAPMTSPMSSSTLAHSLAAIEALADGPTSTSTCLEAQGGPSSPVQLPPASGAEEPDLQSLEAMMEVVVVQQFKCKMCQYRSSTKATLLRHMRERHFRPVAAAAAAAGKKGRLRKWSTSTKSQEEEGPEEEDDDDIVDAGAIDDLEEDSDYNPAEDEPRGRQLRLQRPTPSTPRPRRRPGRPRKLPRLEISDLPDGVEGEPLVSSQSGQSPPEPQDPEAPSSSGPGHLVAMGKVSRTPVEAGVSQSDAENAAPSCPDEHDTLPRRRGRPSRRFLGKKYRKYYYKSPKPLLRPFLCRICGSRFLSHEDLRFHVNSHEAGDPQLFKCLQCSYRSRRWSSLKEHMFNHVGSKPYKCDECSYTSVYRKDVIRHAAVHSRDRKKRPDPTPKLSSFPCPVCGRVYPMQKRLTQHMKTHSTEKPHMCDKCGKSFKKRYTFKMHLLTHIQAVANRRFKCEFCEFVCEDKKALLNHQLSHVSDKPFKCSFCPYRTFREDFLLSHVAVKHTGAKPFACEYCHFSTRHKKNLRLHVRCRHASSFEEWGRRHPEEPPSRRRPFFSLQQIEELKQQHSAAPGPPPSSPGPPEIPPEATTFQSSEAPSLLCSDTLGGATIIYQQGAEESTAMATQTALDLLLNMSAQRELGGTALQVAVVKSEDVEAGLASPGGQPSPEGATPQVVTLHVAEPGGGAAAESQLGPPDLPQITLAPGPFGGTGYSVITAPPMEEGTSAPGTPYSEEPAGEAAQAVVVSDTLKEAGTHYIMATDGTQLHHIELTADGSISFPSPDALASGAKWPLLQCGGLPRDGPEPPSPAKTHCVGDSQSSASSPPATSKALGLAVPPSPPSAATAASKKFSCKICAEAFPGRAEMESHKRAHAGPGAFKCPDCPFSARQWPEVRAHMAQHSSLRPHQCSQCSFASKNKKDLRRHMLTHTKEKPFACHLCGQRFNRNGHLKFHIQRLHSPDGRKSGTPTARAPTQTPTQTIILNSDDETLATLHTALQSSHGVLGPERLQQALSQEHIIVAQEQTVTNQEEAAYIQEITTADGQTVQHLVTSDNQVQYIISQDGVQHLLPQEYVVVPEGHHIQVQEGQITHIQYEQGAPFLQESQIQYVPVSPGQQLVTQAQLEAAAHSAVTAVADAAMAQAQGLFGTDETVPEHIQQLQHQGIEYDVITLADD
notes: also called NIF-1 expressed as a B42-fusion
B2: LexA-fusion of full-length cTRα (receptor, UniProt P0A7C2 1-202, looked up)
chain: MKALTARQQEVFDLIRDHISQTGMPPTRAEIAQRLGFRSPNAAEEHLKALARKGVIEIVSGASRGIRLLQEEEEGLPLVGRVAAGEPLLAQQHIEGHYQVDPSLFKPNADFLLRVSGMSMKDIGIMDGDLLAVHKTQDVRNGQVVVARIDDEVTVKRLKKQGNKVELLPENSEFKPIVVDLRQQSFTIEGLAVGVIRNGDWLMEQKPSTLDPLSEPEDTRWLDGKRKRKSSQCLVKSSMSGYIPSYLDKDEQCVVCGDKATGYHYRCITCEGCKGFFRRTIQKNLHPTYSCKYDGCCVIDKITRNQCQLCRFKKCISVGMAMDLVLDDSKRVAKRKLIEENRERRRKEEMIKSLQHRPSPSAEEWELIHVVTEAHRSTNAQGSHWKQKRKFLPEDIGQSPMASMPDGDKVDLEAFSEFTKIITPAITRVVDFAKKLPMFSELPCEDQIILLKGCCMEIMSLRAAVRYDPESETLTLSGEMAVKREQLKNGGLGVVSDAIFDLGKSLSAFNLDDTEVALLQAVLLMSSDRTGLICVDKIEKCQETYLLAFEHYINYRKHNIPHFWPKLLMKVTDLRMIGACHASRFLHMKVECPTELFPPLFLEVFEDQEV
notes: domain: LexA DBD;mature

How the values were obtained:
[1] = target: T1, LexA-NRC-b (LexA DBD fused to NRC amino acids 849-2063), bait of the two-hybrid screen (UniProt P0A7C2 1-202; Q14686 849-2063); experiment: yeast two-hybrid, LexA-NRC fusions against B42-NIF-1 constructs (FIG. 6A)
T1 construct: domain: LexA DBD;range 849-2063
Excerpt: Cell. Biol. 20:5048-5063 (2000), which is hereby incorporated by reference in its entirety). The yeast strain EGY48 harboring the LacZ reporter pSH1 8-34 (Gyuris et al., “Cdi1, A Human G1 and S Phase Protein Phosphatase that Associates with Cdk2,” Cell 75:791-803 (1993), which is hereby incorporated by reference in its entirety), and pEG202ΔPL-NRC-b was transformed with the GH4C1 pJG4-5 cDNA library. Transformants were directly screened on X-gal SD-galactose-raffinose plates lacking trp, ura, his, and leu. Putative positive clones were further purified on trp⁻, ura⁻, his⁻, and leu⁻ SD-galactose-raffinose plates. The purified clones were plated on SD-dextrose/trp⁻, ura^{-,} his⁻ plates to repress the expression of cDNAs from pJG4-5. Galactose-inducible interactions were verified upon replica plating each clone on trp⁻, ura⁻, his⁻, leu⁻ X-gal SD-galactose-raffinose and trp⁻, ura⁻, his⁻ X-gal SD-dextrose plates. […] The putative cDNAs from positive clones were further verified against several different baits. The positive interactors were then sequenced and subjected to restriction digestion, size determination, and further analysis.
Various regions of NRC were expressed as LexA fusions in yeast (designated as rows “a-g” in FIG. 6A) and their interaction compared with full-length NIF-1, NIF-2, and various deletions of NIF-1 conditionally expressed from pJG4-5. […]

[2] = target: B1; experiment: yeast two-hybrid, B42-NIF-1 (full-length) against LexA full-length cTRα
Protocol: To examine for this possibility, the interaction of B42-NIF-1 (full-length), conditionally expressed from pJG4-5, was studied with LexA fusions of nuclear receptor LBDs (cTRα, ERa, RXRα, GR, RARα, and PPARα) in yeast, as shown in FIG. 7. In addition, a LexA-fusion of full-length cTRα was also tested against B42-NIF-1 (full-length) and gave similar results as with the cTRα LBD. […] To document that the LexA-LBD fusions were expressed and responded to ligand in yeast, similar studies were carried out with B42-NRC.

Binder | binding result [1] | binding result [2]
B1 | binds | –
B2 | – | no binding
